Results published in publication PMC4933373, “Conformational Stability of the NH2-Terminal Propeptide of the Precursor of Pulmonary Surfactant Protein SP-B” (PLoS ONE, 2016).

Assays:
[1] = biological target: the molecule itself; assay: differential scanning calorimetry; 0.3 mg/mL SP-BN in 5 mM Tris-HCl pH 7, 500 mM NaCl, 20-120°C at 60°C/h; second transition fitted to the Non Two-State model with two peaks; ratio of van't Hoff to calorimetric enthalpy
[2] = biological target: the molecule itself; assay: AUC; sedimentation velocity, 0.15 mg/mL SP-BN in 5 mM Tris-HCl pH 7.0, 150 mM NaCl, 20°C, 48,000 rpm
[3] = biological target: the molecule itself; assay: AUC; sedimentation velocity, 0.15 mg/mL SP-BN in 5 mM Tris-HCl pH 7.0, 500 mM NaCl, 20°C, 48,000 rpm; 35% of the loaded protein detected
[4] = biological target: the molecule itself; assay: cross-linking; 0.26 mg/mL SP-BN in 20 mM Tris-HCl, 500 mM NaCl pH 7.0, 0.08% (v/v) glutaraldehyde for 20 s and 120 s at 20°C; SDS-PAGE and immunoblot

B1: NH2-terminal propeptide of the precursor of pulmonary surfactant protein SP-B (recombinant human SP-BN) (domain or fragment, UniProt P07988 24-200, looked up)
chain: AWTTSSLACAQGPEFWCQSLEQALQCRALGHCLQEVWGHVGADDLCQECEDIVHILNKMAKEAIFQDTMRKFLEQECNVLPLKLLMPQCNQVLDDYFPLVIDYFQNQTDSNGICMHLGLCKSRQPEPEQEPGMSDPLPKPLRDPLPDPLLDKLVLPVLPGALQARPGPHTQDLSEQQ
notes: 177 amino acids, 19,902 Da from the composition; Not glycosylated (made in bacteria); also called N-terminal propeptide of proSP-B; the propeptide; source: E. coli, expressed as fusion MBP-SP-BN, purified after cleaving the fusion with factor Xa
With B1 the “stoichiometry N” value [1] was roughly 4, the “stoichiometry N” value [2] was 2 and the “stoichiometry N” value [3] was 6. The “stoichiometry N” value [4] was 3.
